Key:
beta-NGF (Homo sapiens) [1] = molecular target: beta-NGF (Homo sapiens) (UniProt P01138); experiment: cell_activity; conditions: PC12 neurite growth, 0.38 nM NGF
beta-NGF (Homo sapiens) [2] = molecular target: beta-NGF (Homo sapiens) (UniProt P01138); experiment: filter; conditions: BndU at Z' (n) positions [n positions 30,37,38,43,44,45,51,52,54 = modified dU]; SB17T-0.002, 37 C; Zorbax resin capture

Chain of beta-NGF (Homo sapiens) (P01138 122-241): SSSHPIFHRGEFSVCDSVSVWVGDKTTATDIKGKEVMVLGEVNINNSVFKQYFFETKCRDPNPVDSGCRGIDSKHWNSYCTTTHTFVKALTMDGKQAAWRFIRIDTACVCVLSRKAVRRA

Sequence	IC50 (beta-NGF (Homo sapiens) [1]; BndU at Z' (n) positions, 3'-idT in cell assays [n positions 3,10,11,16,17,18,24,25,27 = modified dU]) [nM]	Kd (beta-NGF (Homo sapiens) [2]) [nM]	IC50 (beta-NGF (Homo sapiens) [1]; BndU at Z' (n) positions [n positions 30,37,38,43,44,45,51,52,54 = modified dU], 3'-idT) [nM]
CATGAGGACTTGGGGTTTAGCCGTTGTG [2426-66-50]	1		
GAGTGACCGTCTGCCTGCAGCGGGACACATGAGGACTTGGGGTTTAGCCGTTGTGGCACAGAGAAGAAACAAGACC [2426-66]		5	2

Source: patent publication US20130012693
